Where two headings read alike, the source gives them in different places.
Legend:
[1] = target: T1, UP1 (proteolytic product of hnRNP A1) (UniProt P09651 1-196); assay: EMSA
[2] = target: T1, UP1 (proteolytic product of hnRNP A1); assay: EMSA; remark: listed apart in the source

T1 sequence (P09651 1-196): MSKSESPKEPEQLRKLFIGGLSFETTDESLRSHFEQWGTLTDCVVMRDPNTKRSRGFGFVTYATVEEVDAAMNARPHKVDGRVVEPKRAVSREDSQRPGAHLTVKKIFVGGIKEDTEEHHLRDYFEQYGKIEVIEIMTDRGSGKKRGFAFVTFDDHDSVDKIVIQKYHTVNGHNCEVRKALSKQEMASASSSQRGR

B1: 15-mer telomerase RNA (ssRNA)
RNA: UGAGAAGGGCGUAGG
- binding result [1]: binds
- binding result [2]: binds
